Legend:
[1] = biological target: the molecule itself; test: cryo-EM structure; single-particle cryo-EM of AKT1 co-expressed with CIPK23 and CBL1 in HEK293 cells; 0.08% digitonin, 0.5 mM CaCl2, 5 mM MnCl2, 1 mM ATP, 1 mM sodium orthovanadate; map at about 11 Å
[2] = biological target: the molecule itself; test: cryo-EM structure; single-particle cryo-EM of the purified channel from Sf9 cells; 25 mM Tris-HCl pH 7.4, 150 mM KCl, 0.1% digitonin
[3] = biological target: the molecule itself; test: cryo-EM structure; cryo-EM, 2D classification only (preliminary analysis); no map or model reported

B1: Phosphorylated AKT1 (AKT1 co-expressed with CIPK23 and CBL1 in HEK293 cells) (natural protein)
chain: not shown
modifications: phosphoserine at Ser26 and Ser338 (found by mass spectrometry after co-expression with CIPK23 and CBL1)
notes: Potassium channel AKT1, Arabidopsis thaliana, UniProt Q38998
B1: binds [1].

B2: Arabidopsis thaliana potassium channel AKT1, wild type (Flag-tagged, from Sf9 cells) (natural protein)
chain: not shown
notes: Potassium channel AKT1, Arabidopsis thaliana, UniProt Q38998; Homotetramer in the cryo-EM structure; also called WT AKT1; AKT1 WT
With B2 the “stoichiometry N” value [2] was 4.

B3: AKT1 Asp379Ala, constitutively-active variant (Flag-tagged, from Sf9 cells) (natural protein)
chain: not shown
notes: Potassium channel AKT1, Arabidopsis thaliana, UniProt Q38998, with the point mutation Asp379Ala; Two cryo-EM classes (4-fold and 2-fold symmetric cytoplasmic domain); also called AKT1-D379A; constitutively-active mutant; source: Sf9 insect cells (Bac-to-bac baculovirus), purified by the same protocol as AKT1
B3: binds [2].

B4: AKT1_(16-857), AKT1 lacking the N-terminal 15 residues (domain or fragment)
chain: not shown
notes: source: purified
B4: binds [3].
